How the values were obtained:
[1] = target: PltB-Strep; assay: SEC
[2] = target: PltA-CdtB-His6 (Salmonella enterica serovar Typhi) (UniProt Q8Z6A7); assay: pull-down
[3] = target: PltC (untagged, His tag removed); assay: crystal structure
[4] = target: PltC-His6; assay: SEC

With PltB-Strep (natural protein) as the substance, how does the stoichiometry N [1] read?
Its stoichiometry N is 5.

What does the source list for “PltC (untagged, His tag removed) (natural protein)”?
fold copurified relative to PltB [2]: 2 fold; stoichiometry N [3]: 5

For PltC-His6 (natural protein), which stoichiometry N [4] is on record?
Its stoichiometry N is 5.

Source: paper PMC8749428
